Experiment [1] has as its target T1, RANTES (Homo sapiens, UniProt P13501).
T1 construct: purchased 300-06
T1 sequence (P13501 24-91): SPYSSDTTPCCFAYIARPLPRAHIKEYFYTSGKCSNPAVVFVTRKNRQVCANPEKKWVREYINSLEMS
As to the kind of experiment: Micro-array analysis of chemokine binding peptides: RANTES. The essentials: (§1)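 Phage-presented peptides (10^7 pfu/μl in wash buffer) were incubated 1 h at room temperature on blocked slides carrying chemokine spots at 25 or 50 μg/ml. After anti-M13 and Cy3-labelled secondary antibody staining, slides were laser-scanned and spot fluorescence quantified as relative binding.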

Experiment [2] has as its system Adjuvant-Induced Arthritis (AIA) rats. Briefly: Adjuvant Induced Arthritis (AIA) rat model, Clinical Score. The class given is in vivo. The settings on record: for most efficacious of the three doses: 2.5 μg, 25 μg and 250 μg IP on days 7-18; for day of maximal anti-inflammatory effect / maximal anti-inflammatory effect: 25 μg IP on days 7-18. As to the method: Peptides were tested in a rat model of AIA for their anti-inflammatory effects.
Disease Induction: AIA was induced in female Lewis rats aged 7-8 weeks by injection of heat-killed Mycobacerioum tuberculosis (Mt strain H37Ra, Difco Laboratories, USA) dispersed in incomplete Freund's adjuvant to a final concentration of 10 mg/ml (100 μl) at the base of the tail on day 0.
Measurement: Clinical Score (CS, 0-4) for each limb based on (a) joint inflammation, (b) redness, (c) deformity.
Efficacy Protocol 1 (5 rats per group). Peptide/control compound was injected intra-peritoneally (IP, 200 μl) on days 7-11 and 14-18.
Rats were sacrificed (CO2 inhalation) on day 43.
Efficacy Protocol 2 (8 rats per group). Group 1: peptide/PBS was injected intra-peritoneally (IP, 200 μl) on days 7-18; Group 2: PBS was injected IP on days 7-18; Group 3: Dexamethasone (Dexa) was injected IP on days 11 (Clinical Score (CS)1) and 13. Rats were sacrificed on day 43.
Combination Efficacy Protocol 1 (8 rats per group). Group 1: peptide injected IP on days 7-18; Group 2: PBS injected IP on days 7-18; Group 3: Dexa injected IP on day 11 (CS 1) and day 13; Group 4: Dexa injected IP on days 11 and 13 then peptide injected on days 14-22; Group 5: Dexa injected IP on days 11 and 13 then PBS injected on days 14-22.
Combination Efficacy Protocol 2 (8 rats per group). Group 1: peptide injected IP on days 7-18; Group 2: PBS injected IP on days 7-18; Group 3: Dexa injected IP on day 11 (CS 1) and day 13 then PBS on days 14-22; Group 4: PBS injected IP on days 7-10,12,14; Dexa injected on days 11, 13. Peptide injected on days 15-19.
Combination Efficacy Protocol 3 (8 rats per group). Group 1: peptide injected IP on days 7-18; Group 2: PBS injected IP on days 7-18; Group 3: Dexa injected IP on day 11 (CS 1) and day 13 then PBS on days 14-22; Group 4: peptide injected IP on days 7-10,12,14; Dexa injected on days 11, 13. Peptide injected on days 15-19.
Control Reagents for Adjuvant Induced Arthritis: Anti-Inflammatory Control: Dexamethasone Sodium Phosphate (Dexacort Forte, Teva) was dissolved in Phosphate Buffer Saline (PBS, GIBCO) to a final concentration of 1 mg/ml and injected in 200 μl (200 μg).
Negative Control: Phosphate Buffer Saline (PBS).

Experiment [3] has as its target T2, MCP-1 (Homo sapiens, UniProt P13500).
T2 construct: purchased 300-04
Briefly: Micro-array analysis of chemokine binding peptides: MCP-1. The settings on record: for binding to MCP-1 with relatively high affinity (Relative Fluorescence Units): limit = start of the upper 75% of that peptide's response range. In short, it runs like this: as §1

Experiment [4] addresses T3, SDF1-α (Homo sapiens, UniProt P48061).
T3 construct: purchased 300-28a
As to the kind of experiment: Micro-array analysis of chemokine binding peptides: SDF1-α. In short, it runs like this:
as §1

For experiment [5], the target named is T4, MDC 69 (Homo sapiens, UniProt O00626).
T4 construct: MDC(69aa), (CCL22 cat.no.300-36A); purchased 300-36A
T4 sequence (O00626 25-93): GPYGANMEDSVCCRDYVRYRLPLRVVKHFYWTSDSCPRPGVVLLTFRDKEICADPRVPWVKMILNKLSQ
As to the kind of experiment: Micro-array analysis of chemokine binding peptides: MDC 69. As to the method:
(§2) (1) Printing: Chemokine (CK) solution (in water) was serially diluted with Print Reagent (GenTel BioSurfaces USA) to final concentrations of 50 μg and 25 μg/ml. BSA/BSA-Biotin control solutions (in water) were diluted with Print Reagent to 100 μg/ml. Amplified stock of M13 phage control (M13KEgIII Cloning Vector, New England Biolabs, Cat.No.E8101S) was stored in Tris Buffered Saline (TBS; pH7.5, 4° C.) and diluted with Print Reagent to the working titre (10^8 pfu/μl). An automated spotting robot (16 pin print tool, 0.4 mm head; BioRobotics, UK) was used to print the CK/BSA control/M13 control, 5 repeats per sample (CK 25 μg/ml and 50 μg/ml; BSA 100 μg/ml; M13 20 μl), on PATH Protein Microarray Slides (GenTel, Prod.No. 2-1005/-1025) at […], and 50-70% relative humidity. Printed micro-array slides were stored at Room Temperature (RT) or 4° C. for at least 24 h before use.
(§3) (2) Blocking: Block Buffer (500 μl/partition; PATHblock, GenTel, Prod.No. 2-1014) was applied to the slide for 1 hour at room temp (RT). After removal of Block Buffer, the slide was air dried for 25 minutes;
(§4) (3) Phage Presented Peptide Binding: Amplified recombinant phage stock was stored in TBS and diluted with Wash Buffer to working titer (10^7 pfu/μl). Recombinant phage suspension (300 μl) was applied per partition and incubated at RT for 1 hour with gentle agitation.
(§5) (4) First Washing: The slides were washed twice with Wash Buffer 300 μl/partition).
(§6) (5) Primary Antibody (Ab) Labeling: The slides were incubated with the Primary Ab (1 mg/ml diluted ×2500 (Wash Reagent), 300 μl; Mouse Anti-M13 monoclonal Ab; Amersham Biosciences, UK; Product Code 27-9420-01) for 45 minutes at RT. […]
(§7) (11) Analysis: Quantitative analysis of micro-array was performed by the SpotReader program of Niles Scientific (USA) and presented as Relative Fluorescence (RF) as a function of CK concentration. Micro-array readout (Cy3 fluorescence) was quantified to determine the relative binding affinities of a CBP for the CKs and by inference, the specificity of the CBP for binding to a CK.

In experiment [6] the target is T5, C-TAC (Homo sapiens, UniProt Q9Y4X3).
T5 construct: purchased 300-54
T5 sequence (Q9Y4X3 25-112): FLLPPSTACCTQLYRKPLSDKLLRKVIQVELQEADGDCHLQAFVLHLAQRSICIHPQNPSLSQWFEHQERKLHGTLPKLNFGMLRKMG
As to the kind of experiment: Micro-array analysis of chemokine binding peptides: C-TAC. As to the method: as §2, §3, §4, §5, §6, §7

T2 sequence (P13500 24-99): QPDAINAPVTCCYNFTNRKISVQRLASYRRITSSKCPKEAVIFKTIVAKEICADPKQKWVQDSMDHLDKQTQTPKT
T3 sequence (P48061 22-89 limits assumed): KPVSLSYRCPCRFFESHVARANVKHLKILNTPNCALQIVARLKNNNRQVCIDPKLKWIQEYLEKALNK

Turning to WVFGNAMCK [P8], the “binding to RANTES, stated in words” value in experiment [1] was “bound specifically and differentially”. Besides, in experiment [2], the “most efficacious of the three doses” value is 25 µg, the “day of maximal anti-inflammatory effect” value was approximately 17 days and the maximal anti-inflammatory effect came out at 17%.

For WVFGAAMCK [Ph-p8.8], in experiment [3], the “binding to MCP-1, stated in words” value was “bound specifically and differentially”; the “binding to MCP-1 with relatively high affinity (Relative Fluorescence Units)” value was > 15,000 RFU. In experiment [4], the “binding to SDF1-α, stated in words” value is given as “bound”. Also, in experiment [5], the “binding to MDC 69, stated in words” value is reported as “bound”. In experiment [6], the “binding to C-TAC, stated in words” value is on record as “bound”. Besides, in experiment [2], the “most efficacious of the three doses” value was 25 µg, the “day of maximal anti-inflammatory effect” value was found to be 18 days and the maximal anti-inflammatory effect came out at 20%.

Regarding DYDYGAPC [Ph-p30], the “binding to MCP-1 with relatively high affinity (Relative Fluorescence Units)” value in experiment [3] was > 15,000 RFU. The “binding to RANTES with relatively high affinity (Relative Fluorescence Units)” value in experiment [1] (limit = start of the upper 75% of that peptide's response range) is recorded as > 15,000 RFU. In addition, in experiment [4], the “binding to SDF1-α, stated in words” value was “bound”. Moreover, in experiment [5], the “binding to MDC 69, stated in words” value is “bound”. Further, in experiment [6], the “binding to C-TAC, stated in words” value is on record as “bound”.

(Values after patent US12072338B2, “Pharmaceutical peptides for the treatment of inflammatory diseases” (PROTAGONISTS LTD., priority 2007, dated 2024).)
